Values joined by “and” are separate entries in the source; they are usually repeats but may differ in a detail not shown here. Identical values can stand only once.
Key:
[1] = target: vascular endothelial growth factor (VEGF165) (human); experiment: solid-state nanopore translocation; 0.2 nM to 100 nM VEGF, pH 7.2, V = −500 mV, ~5–6.5 nm pore; 1 M KCl, 50 mM phosphate buffer, 5 mM EDTA, 22.0 ± 0.5 °C; 0.5 mM TCEP added afterwards shifts the events to single-level group A (71%)
[2] = target: vascular endothelial growth factor (VEGF165) (human); experiment: solid-state nanopore translocation; 20 nM VEGF, pH 7.6, V = +500 mV, ~5.5 nm pore in 12 nm SiNx; 1 M KCl, 50 mM phosphate buffer, 5 mM EDTA, 22.0 ± 0.5 °C; then 0.5 mM TCEP added in the same pore (events converge into one lower-amplitude group, 92%)
[3] = target: vascular endothelial growth factor (VEGF165) (human); experiment: SDS-PAGE; VEGF solution before reduction (non-reducing)

- percent of translocation events in group B (dimer) at 20 nM [1]: 12%
- percent of translocation events in level B and B/A (dimeric state) at 0.2 nM [1]: 6%
- percent of translocation events in level B and B/A (dimeric state) at 100 nM [1]: 59%
- percent of translocation events with a B to A multi-level pattern at 20 nM [1]: 28%
- stoichiometry N [1]: 2
- stoichiometry N [2]: 2 and 3
- stoichiometry N [3]: 2 and 3
Substance: vascular endothelial growth factor (VEGF165) (natural protein)

Reference: article PMC5772516
